Assay results taken from ChEMBL document CHEMBL3871290, “3-Cyano-6-(5-methyl-3-pyrazoloamino) pyridines (Part 2): A dual inhibitor of Aurora kinase and tubulin polymerization” (Bioorg Med Chem Lett, 2016).

Columns and labels:
Conditions in all cases: Homo sapiens
[1] = substrate: Cc1ccc(OCCNc2nc(Nc3cc(C)[nH]n3)cc(C)c2C#N)cn1
Description: Activity at Aurora 2 kinase (unknown origin)

[2] = substrate: Cc1ccc(OCCNc2nc(Nc3cc(C)[nH]n3)cc(C)c2C#N)cn1; remark: listed apart in the source
Description: Activity at Aurora 1 kinase (unknown origin)

[3] = substrate: Cc1ccc(OCCNc2nc(Nc3cc(C)[nH]n3)cc(C)c2C#N)cn1; remark: listed apart in the source
Description: Activity at LYN (unknown origin)

B1: Aurora kinase A (Homo sapiens), O14965 (protein)
chain: MDRSKENCISGPVKATAPVGGPKRVLVTQQFPCQNPLPVNSGQAQRVLCPSNSSQRIPLQAQKLVSSHKPVQNQKQKQLQATSVPHPVSRPLNNTQKSKQPLPSAPENNPEEELASKQKNEESKKRQWALEDFEIGRPLGKGKFGNVYLAREKQSKFILALKVLFKAQLEKAGVEHQLRREVEIQSHLRHPNILRLYGYFHDATRVYLILEYAPLGTVYRELQKLSKFDEQRTATYITELANALSYCHSKRVIHRDIKPENLLLGSAGELKIADFGWSVHAPSSRRTTLCGTLDYLPPEMIEGRMHDEKVDLWSLGVLCYEFLVGKPPFEANTYQETYKRISRVEFTFPDFVTEGARDLISRLLKHNPSQRPMLREVLEHPWITANSSKPSNCQNKESASKQS
Km [1]: 28 µM

B2: Aurora kinase B (Homo sapiens), Q96GD4 (protein)
chain: MAQKENSYPWPYGRQTAPSGLSTLPQRVLRKEPVTPSALVLMSRSNVQPTAAPGQKVMENSSGTPDILTRHFTIDDFEIGRPLGKGKFGNVYLAREKKSHFIVALKVLFKSQIEKEGVEHQLRREIEIQAHLHHPNILRLYNYFYDRRRIYLILEYAPRGELYKELQKSCTFDEQRTATIMEELADALMYCHGKKVIHRDIKPENLLLGLKGELKIADFGWSVHAPSLRRKTMCGTLDYLPPEMIEGRMHNEKVDLWCIGVLCYELLVGNPPFESASHNETYRRIVKVDLKFPASVPMGAQDLISKLLRHNPSERLPLAQVSAHPWVRANSRRVLPPSALQSVA
Km [2]: 30 µM

B3: Tyrosine-protein kinase Lyn (Homo sapiens), P07948 (protein)
chain: MGCIKSKGKDSLSDDGVDLKTQPVRNTERTIYVRDPTSNKQQRPVPESQLLPGQRFQTKDPEEQGDIVVALYPYDGIHPDDLSFKKGEKMKVLEEHGEWWKAKSLLTKKEGFIPSNYVAKLNTLETEEWFFKDITRKDAERQLLAPGNSAGAFLIRESETLKGSFSLSVRDFDPVHGDVIKHYKIRSLDNGGYYISPRITFPCISDMIKHYQKQADGLCRRLEKACISPKPQKPWDKDAWEIPRESIKLVKRLGAGQFGEVWMGYYNNSTKVAVKTLKPGTMSVQAFLEEANLMKTLQHDKLVRLYAVVTREEPIYIITEYMAKGSLLDFLKSDEGGKVLLPKLIDFSAQIAEGMAYIERKNYIHRDLRAANVLVSESLMCKIADFGLARVIEDNEYTAREGAKFPIKWTAPEAINFGCFTIKSDVWSFGILLYEIVTYGKIPYPGRTNADVMTALSQGYRMPRVENCPDELYDIMKMCWKEKAEERPTFDYLQSVLDDFYTATEGQYQQQP
Km [3]: 1000 µM
